Assay results reported in IntAct's records for PubMed 19661922.

B1: 5-hydroxytryptamine receptor 4 (Mus musculus), P97288 (parent)
chain: MDKLDANVSSNEGFRSVEKVVLLTFLAVVILMAILGNLLVMVAVCRDRQLRKIKTNYFIVSLAFADLLVSVLVMPFGAIELVQDIWAYGEMFCLVRTSLDVLLTTASIFHLCCISLDRYYAICCQPLVYRNKMTPLRIALMLGGCWVLPMFISFLPIMQGWNNIGIVDVIEKRKFSHNSNSTWCVFMVNKPYAITCSVVAFYIPFLLMVLAYYRIYVTAKEHAQQIQMLQRAGATSESRPQPADQHSTHRMRTETKAAKTLCVIMGCFCFCWAPFFVTNIVDPFIDYTVPEQVWTAFLWLGYINSGLNPFLYAFLNKSFRRAFLIILCCDDERYKRPPILGQTVPCSTTTINGSTHVLRDTVECGGQWESRCHLTATSPLVAAQPSDT

Key:
grk5_human GRK5, P34947 [1] = variants of: B1; settings: with grk5_human GRK5, P34947
grk5_human GRK5, P34947 [2] = variants of: B1; settings: with grk5_human GRK5, P34947; remark: listed apart in the source

Sequence of grk5_human GRK5, P34947 (P34947 whole entry, looked up): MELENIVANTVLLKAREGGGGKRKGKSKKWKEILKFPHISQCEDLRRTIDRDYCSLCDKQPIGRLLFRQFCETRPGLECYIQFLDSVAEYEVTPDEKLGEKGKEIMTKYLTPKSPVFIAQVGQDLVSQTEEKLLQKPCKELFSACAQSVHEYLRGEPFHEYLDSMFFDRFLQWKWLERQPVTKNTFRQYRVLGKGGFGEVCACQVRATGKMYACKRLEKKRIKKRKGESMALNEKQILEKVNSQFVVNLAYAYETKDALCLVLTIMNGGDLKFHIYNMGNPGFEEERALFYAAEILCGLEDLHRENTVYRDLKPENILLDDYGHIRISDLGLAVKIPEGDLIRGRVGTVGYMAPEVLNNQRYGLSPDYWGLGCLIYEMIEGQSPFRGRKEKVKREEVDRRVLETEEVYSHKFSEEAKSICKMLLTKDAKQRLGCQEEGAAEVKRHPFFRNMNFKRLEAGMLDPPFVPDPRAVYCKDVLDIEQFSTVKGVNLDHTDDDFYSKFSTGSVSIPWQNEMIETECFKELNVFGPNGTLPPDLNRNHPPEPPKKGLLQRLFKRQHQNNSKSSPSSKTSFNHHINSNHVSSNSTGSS

| effect of a mutation on the interaction (grk5_human GRK5, P34947 [1]) | effect of a mutation on the interaction (grk5_human GRK5, P34947 [2]) | Variant |
| --- | --- | --- |
| decreasing interaction | disrupting interaction | MDKLDANVSSNEGFRSVEKVVLLTFLAVVILMAILGNLLVMVAVCRDRQLRKIKTNYFIVSLAFADLLVSVLVMPFGAIELVQDIWAYGEMFCLVRTSLDVLLTTASIFHLCCISLDRYYAICCQPLVYRNKMTPLRIALMLGGCWVLPMFISFLPIMQGWNNIGIVDVIEKRKFSHNSNSTWCVFMVNKPYAITCSVVAFYIPFLLMVLAYYRIYVTAKEHAQQIQMLQRAGATSESRPQPADQHSTHRMRTETKAAKTLCVIMGCFCFCWAPFFVTNIVDPFIDYTVPEQVWTAFLWLGYINSGLNPFLYAFLNKSFRRAFLIILCCADERYKRPPILGQTVPCSTTTINGSTHVLRDTVECGGQWESRCHLTATSPLVAAQPSDT [D330A] |
| decreasing interaction | disrupting interaction | MDKLDANVSSNEGFRSVEKVVLLTFLAVVILMAILGNLLVMVAVCRDRQLRKIKTNYFIVSLAFADLLVSVLVMPFGAIELVQDIWAYGEMFCLVRTSLDVLLTTASIFHLCCISLDRYYAICCQPLVYRNKMTPLRIALMLGGCWVLPMFISFLPIMQGWNNIGIVDVIEKRKFSHNSNSTWCVFMVNKPYAITCSVVAFYIPFLLMVLAYYRIYVTAKEHAQQIQMLQRAGATSESRPQPADQHSTHRMRTETKAAKTLCVIMGCFCFCWAPFFVTNIVDPFIDYTVPEQVWTAFLWLGYINSGLNPFLYAFLNKSFRRAFLIILCCDDARYKRPPILGQTVPCSTTTINGSTHVLRDTVECGGQWESRCHLTATSPLVAAQPSDT [E332A] |
| decreasing interaction | disrupting interaction | MDKLDANVSSNEGFRSVEKVVLLTFLAVVILMAILGNLLVMVAVCRDRQLRKIKTNYFIVSLAFADLLVSVLVMPFGAIELVQDIWAYGEMFCLVRTSLDVLLTTASIFHLCCISLDRYYAICCQPLVYRNKMTPLRIALMLGGCWVLPMFISFLPIMQGWNNIGIVDVIEKRKFSHNSNSTWCVFMVNKPYAITCSVVAFYIPFLLMVLAYYRIYVTAKEHAQQIQMLQRAGATSESRPQPADQHSTHRMRTETKAAKTLCVIMGCFCFCWAPFFVTNIVDPFIDYTVPEQVWTAFLWLGYINSGLNPFLYAFLNKSFRRAFLIILCCDAERYKRPPILGQTVPCSTTTINGSTHVLRDTVECGGQWESRCHLTATSPLVAAQPSDT [D331A] |
